# Test results taken from IntAct's records for PubMed 22228096.
# Target: dnm1l_human DNM1L (UniProt O00429)
# Sequence (O00429 whole entry): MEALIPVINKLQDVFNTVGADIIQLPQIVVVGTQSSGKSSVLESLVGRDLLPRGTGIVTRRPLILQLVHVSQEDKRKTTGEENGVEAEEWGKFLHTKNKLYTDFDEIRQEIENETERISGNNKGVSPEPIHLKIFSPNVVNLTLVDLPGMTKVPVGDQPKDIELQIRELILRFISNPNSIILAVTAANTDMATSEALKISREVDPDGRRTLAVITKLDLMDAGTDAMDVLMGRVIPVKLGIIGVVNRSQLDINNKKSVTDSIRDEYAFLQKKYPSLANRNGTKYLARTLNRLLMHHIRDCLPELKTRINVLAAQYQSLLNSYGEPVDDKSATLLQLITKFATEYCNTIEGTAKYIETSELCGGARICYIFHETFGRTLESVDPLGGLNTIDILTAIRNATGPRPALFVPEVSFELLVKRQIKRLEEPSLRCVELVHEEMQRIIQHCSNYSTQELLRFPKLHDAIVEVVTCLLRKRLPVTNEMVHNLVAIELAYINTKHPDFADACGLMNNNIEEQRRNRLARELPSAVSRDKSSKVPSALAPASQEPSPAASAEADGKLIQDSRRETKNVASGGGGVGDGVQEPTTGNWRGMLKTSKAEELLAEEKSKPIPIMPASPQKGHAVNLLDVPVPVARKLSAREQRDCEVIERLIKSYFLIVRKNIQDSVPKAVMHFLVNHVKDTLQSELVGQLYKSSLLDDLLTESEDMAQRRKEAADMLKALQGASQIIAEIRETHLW
row,effect of a mutation on the interaction,Substance
1,decreasing interaction,"Leucine-rich repeat serine/threonine-protein kinase 2 (Homo sapiens), Q5S007 D1994A"
2,increasing interaction,"Leucine-rich repeat serine/threonine-protein kinase 2 (Homo sapiens), Q5S007 R1441C"
3,increasing interaction,"Leucine-rich repeat serine/threonine-protein kinase 2 (Homo sapiens), Q5S007 G2019S"
4,decreasing interaction,"Leucine-rich repeat serine/threonine-protein kinase 2 (Homo sapiens), Q5S007 K1347A"
